Results from paper doi:10.1101/2021.05.25.445488 (bioRxiv, 2021).

T1: GST-TULP3 full length (human, UniProt O75386-1 1-442)
T1 sequence (looked up): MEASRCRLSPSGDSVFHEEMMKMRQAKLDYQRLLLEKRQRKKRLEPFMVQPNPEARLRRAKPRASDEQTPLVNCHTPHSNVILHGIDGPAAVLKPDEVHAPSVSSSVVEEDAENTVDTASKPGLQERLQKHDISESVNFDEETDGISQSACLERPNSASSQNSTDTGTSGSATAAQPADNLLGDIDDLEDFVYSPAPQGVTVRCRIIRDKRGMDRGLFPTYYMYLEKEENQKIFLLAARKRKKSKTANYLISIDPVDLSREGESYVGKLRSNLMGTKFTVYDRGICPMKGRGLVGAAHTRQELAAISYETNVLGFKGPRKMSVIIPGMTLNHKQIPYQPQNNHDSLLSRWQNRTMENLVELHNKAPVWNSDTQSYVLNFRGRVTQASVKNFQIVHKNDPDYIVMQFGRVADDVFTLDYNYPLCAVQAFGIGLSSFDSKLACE

B1: GFP-ARL13B N-terminus (1-298 aa), insect cell purified (domain or fragment, human, UniProt Q3SXY8-1 1-298, looked up)
chain: MFSLMASCCGWFKRWREPVRKVTLLMVGLDNAGKTATAKGIQGEYPEDVAPTVGFSKINLRQGKFEVTIFDLGGGIRIRGIWKNYYAESYGVIFVVDSSDEERMEETKEAMSEMLRHPRISGKPILVLANKQDKEGALGEADVIECLSLEKLVNEHKCLCQIEPCSAISGYGKKIDKSIKKGLYWLLHVIARDFDALNERIQKETTEQRALEEQEKQERAERVRKLREERKQNEQEQAELDGTSGLAELDPEPTNPFQPIASVIIENEGKLEREKKNQKMEKDSDGCHLKHKMEHEQI
B2: GFP-ARL13B full length, insect cell purified (natural protein)
chain: not shown

Target: T1, GST-TULP3 full length
Experiment: pull-down

Binder	binding result
B1	binds
B2	binds
